Each block holds one binder with its values, some of them ahead of it.
B5: murine CD172a(SIRPα)-Fc-CD40L chimeric protein (Fc fusion)
chain 1: KELKVTQPEKSVSVAAGDSTVLNCTLTSLLPVGPIRWYRGVGPSRLLIYSFAGEYVPRIRNVSDTTKRNNMDFSIRISNVTPADAGIYYCVKFQKGSSEPDTEIQSGGGTEVYVLAKPSPPEVSGPADRGIPDQKVNFTCKSHGFSPRNITLKWFKDGQELHPLETTVNPSGKNVSYNISSTVRVVLNSMDVNSKVICEVAHITLDRSPLRGIANLSNFIRVSPTVKVTQQSPTSMNQVNLTCRAERFYPEDLQLIWLENGNVSRNDTPKNLTKNTDGTYNYTSLFLVNSSAHREDVVFTCQVKHDQQPAITRNHTVLGFAHSSDQGSMQTFPDNNATHNWN
chain 2: HRRLDKVEEEVNLHEDFVFIKKLKRCNKGEGSLSLLNCEEMRRQFEDLVKDITLNKEEKKENSFEMQRGDEDPQIAAHVVSEANSNAASVLQWAKKGYYTMKSNLVMLENGKQLTVKREGLYYVYTQVTFCSNREPSSQRPFIVGLWLKPSSGSERILLKAANTHSSSQLCEQQSVHLGGVFELQAGASVFVNVTEASQVIHRVGFSSFGLLKL

Key:
[1] = target: T1, OX40 receptor used in the functional ELISA of Example 12 (human, UniProt P43489 29-216); test: functional ELISA on human OX40; x axis is dilution (1 to 16), concentration not given
T1 construct: also called hOX40
T1 sequence (looked up): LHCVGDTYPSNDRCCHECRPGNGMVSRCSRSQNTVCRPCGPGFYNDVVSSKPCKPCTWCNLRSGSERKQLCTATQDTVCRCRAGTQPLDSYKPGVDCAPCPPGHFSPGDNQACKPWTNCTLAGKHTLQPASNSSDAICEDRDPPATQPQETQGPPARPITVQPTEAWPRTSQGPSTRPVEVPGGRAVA

[2] = target: T2, human OX40 expressed on Jurkat cells (Jurkat/hOX40) (human, UniProt P43489 29-277); test: flow cytometry on Jurkat-hOX40 cells; Jurkat cells without hOX40 as control
T2 construct: whole, on cells
T2 sequence (looked up): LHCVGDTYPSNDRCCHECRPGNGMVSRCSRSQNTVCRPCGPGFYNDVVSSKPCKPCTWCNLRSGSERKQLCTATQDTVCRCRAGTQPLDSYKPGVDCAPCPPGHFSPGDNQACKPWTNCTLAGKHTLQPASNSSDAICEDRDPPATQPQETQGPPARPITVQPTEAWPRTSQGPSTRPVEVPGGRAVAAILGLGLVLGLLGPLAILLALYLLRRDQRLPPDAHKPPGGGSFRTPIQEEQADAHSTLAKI

[3] = target: plate-bound recombinant human PD-L1 protein (human, UniProt Q9NZQ7 19-238, limits assumed); test: functional ELISA on human PD-L1; x axis is dilution (1 to 16), concentration not given
[4] = target: B5; test: SPR, binding to mCD40
TNFRSF4 = target: T3, TNFRSF4; test: microarray containing about 6,000 human membrane proteins
T3 construct: also called TNF Receptor Superfamily Member 4; canonical isoform
T3 chain: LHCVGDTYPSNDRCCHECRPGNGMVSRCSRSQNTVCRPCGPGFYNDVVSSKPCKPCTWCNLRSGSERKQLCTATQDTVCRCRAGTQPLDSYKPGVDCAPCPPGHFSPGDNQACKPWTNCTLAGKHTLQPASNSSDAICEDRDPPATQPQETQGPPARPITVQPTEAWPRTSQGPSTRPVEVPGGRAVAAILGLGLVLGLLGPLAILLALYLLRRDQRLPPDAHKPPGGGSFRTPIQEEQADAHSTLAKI

Galectin-1 = Galectin-1 (human, UniProt P09382 2-135, limits assumed); test: as above
[5] = target: T4, recombinant human OX40-His protein (human, UniProt P43489 29-216); test: SPR, His-tagged target on ProteOn HTG tris-NTA chip, positive control
T4 construct: also called polyhistidine-tagged recombinant human OX40; hOX40; not shown: polyhistidine tag
T4 sequence (looked up): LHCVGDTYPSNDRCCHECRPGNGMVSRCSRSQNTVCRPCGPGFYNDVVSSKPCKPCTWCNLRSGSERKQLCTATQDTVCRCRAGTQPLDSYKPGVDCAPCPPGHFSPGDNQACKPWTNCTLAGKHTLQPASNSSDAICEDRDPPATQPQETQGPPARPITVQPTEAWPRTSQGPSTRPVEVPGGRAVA
Source text: Specifically, polyhistidine-tagged versions of recombinant human PD-L1, PD-L2, or OX40 was bound to ProteOn HTG tris-NTA chips (BIORAD).

[6] = target: T1, OX40 receptor used in the functional …; test: ELISA, plate-bound OX40, detection with αOX40L and HRP detection antibody; fold dilution series
[7] = target: T5, murine CD40 expressed on CHOK1 cells (CHOK1/mCD40) (murine, UniProt P27512 20-289); test: flow cytometry on CHOK1/mCD40 cells
T5 construct: whole, on cells

FcRn-His (Example 11) = target: T6, FcRn-His (Example 11); test: SPR (BioRad ProteOn XPR 360), His-tagged target chip-bound
T6 construct: A beta-2-microglobulin chain is not mentioned

Galectin-1, sequence (P09382 2-135 limits assumed): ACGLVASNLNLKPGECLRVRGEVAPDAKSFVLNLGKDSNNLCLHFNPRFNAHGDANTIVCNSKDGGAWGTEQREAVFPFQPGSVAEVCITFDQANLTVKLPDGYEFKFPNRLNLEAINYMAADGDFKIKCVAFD
T5 sequence (P27512 20-289): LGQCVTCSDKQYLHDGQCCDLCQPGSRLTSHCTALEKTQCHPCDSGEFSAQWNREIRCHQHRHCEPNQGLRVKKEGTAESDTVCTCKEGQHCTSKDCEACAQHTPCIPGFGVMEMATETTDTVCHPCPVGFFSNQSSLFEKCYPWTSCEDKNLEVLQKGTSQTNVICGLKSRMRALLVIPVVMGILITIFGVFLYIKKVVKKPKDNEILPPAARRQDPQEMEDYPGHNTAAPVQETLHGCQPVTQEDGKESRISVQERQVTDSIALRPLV
plate-bound recombinant human PD-L1 protein, sequence (Q9NZQ7 19-238 limits assumed): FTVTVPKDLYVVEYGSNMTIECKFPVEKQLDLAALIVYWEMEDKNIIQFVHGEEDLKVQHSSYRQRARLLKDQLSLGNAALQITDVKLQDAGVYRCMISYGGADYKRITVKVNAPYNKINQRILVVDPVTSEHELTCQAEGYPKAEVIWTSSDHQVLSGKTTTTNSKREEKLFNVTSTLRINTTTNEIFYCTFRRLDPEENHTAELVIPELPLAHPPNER

B1: human PD-1-Fc-OX40L chimeric protein treated with the deglycosylase PNGase F (Fc fusion)
chain: LDSPDRPWNPPTFSPALLVVTEGDNATFTCSFSNTSESFVLNWYRMSPSNQTDKLAAFPEDRSQPGQDCRFRVTQLPNGRDFHMSVVRARRNDSGTYLCGAISLAPKAQIKESLRAELRVTERRAEVPTAHPSPSPRPAGQFQSKYGPPCPSCPAPEFLGGPSVFLFPPKPKDTLMISRTPEVTCVVVDVSQEDPEVQFNWYVDGVEVHNAKTKPREEQFNSTYRVVSVLTVLHQDWLSGKEYKCKVSSKGLPSSIEKTISNATGQPREPQVYTLPPSQEEMTKNQVSLTCLVKGFYPSDIAVEWESNGQPENNYKTTPPVLDSDGSFFLYSRLTVDKSSWQEGNVFSCSVMHEALHNHYTQKSLSLSLGKIEGRMDQVSHRYPRIQSIKVQFTEYKKEKGFILTSQKEDEIMKVQNNSVIINCDGFYLISLKGYFSQEVNISLHYQKDEEPLFQLKKVRSVNSLMVASLTYKDKVYLNVTTDNTSLDDFHVNGGELILIHQNPGEFCVL
modifications: N-glycans removed with PNGase F
notes: also called deglycosylated hPD-1-Fc-OX40L
- binding result [1]: binds
- binding result [2]: binds
- binding result [3]: binds

B3: human PD-1-Fc-OX40L chimeric protein (Fc fusion)
chain: LDSPDRPWNPPTFSPALLVVTEGDNATFTCSFSNTSESFVLNWYRMSPSNQTDKLAAFPEDRSQPGQDCRFRVTQLPNGRDFHMSVVRARRNDSGTYLCGAISLAPKAQIKESLRAELRVTERRAEVPTAHPSPSPRPAGQFQSKYGPPCPSCPAPEFLGGPSVFLFPPKPKDTLMISRTPEVTCVVVDVSQEDPEVQFNWYVDGVEVHNAKTKPREEQFNSTYRVVSVLTVLHQDWLSGKEYKCKVSSKGLPSSIEKTISNATGQPREPQVYTLPPSQEEMTKNQVSLTCLVKGFYPSDIAVEWESNGQPENNYKTTPPVLDSDGSFFLYSRLTVDKSSWQEGNVFSCSVMHEALHNHYTQKSLSLSLGKIEGRMDQVSHRYPRIQSIKVQFTEYKKEKGFILTSQKEDEIMKVQNNSVIINCDGFYLISLKGYFSQEVNISLHYQKDEEPLFQLKKVRSVNSLMVASLTYKDKVYLNVTTDNTSLDDFHVNGGELILIHQNPGEFCVL
notes: Glycosylated; also called hPD-1-Fc-OX40L
- binding result (TNFRSF4): binds
- binding result (Galectin-1): binds

Binder: B5
- EC50 [7]: 20.2 nM

Continued, values first:

- koff [4]: 5.51e-05 s⁻¹
- kon [4]: 72800 M⁻¹ s⁻¹
B2: recombinant murine CD40 protein (receptor, UniProt P27512 24-193, looked up)
chain: VTCSDKQYLHDGQCCDLCQPGSRLTSHCTALEKTQCHPCDSGEFSAQWNREIRCHQHRHCEPNQGLRVKKEGTAESDTVCTCKEGQHCTSKDCEACAQHTPCIPGFGVMEMATETTDTVCHPCPVGFFSNQSSLFEKCYPWTSCEDKNLEVLQKGTSQTNVICGLKSRMR
notes: also called mCD40

- binding result [5]: binds
- binding result [6]: binds
B4: recombinant human OX40L-Fc (Fc fusion, UniProt P23510 51-183, looked up)
chain: QVSHRYPRIQSIKVQFTEYKKEKGFILTSQKEDEIMKVQNNSVIINCDGFYLISLKGYFSQEVNISLHYQKDEEPLFQLKKVRSVNSLMVASLTYKDKVYLNVTTDNTSLDDFHVNGGELILIHQNPGEFCVL
notes: Positive control in SPR; not shown: Fc not described

- Kd (FcRn-His (Example 11)): 55.6 nM
- koff (FcRn-His (Example 11)): 0.00262 s⁻¹
- kon (FcRn-His (Example 11)): 47200 M⁻¹ s⁻¹
B6: murine PD-1-Fc-OX40L chimeric protein (Fc fusion)
chain 1: LEVPNGPWRSLTFYPAWLTVSEGANATFTCSLSNWSEDLMLNWNRLSPSNQTEKQAAFCNGLSQPVQDARFQIIQLPNRHDFHMNILDTRRNDSGIYLCGAISLHPKAKIEESPGAELVVTERILETSTRYPSPSPKPEGRFQGM
chain 2: SSSPAKDPPIQRLRGAVTRCEDGQLFISSYKNEYQTMEVQNNSVVIKCDGLYIIYLKGSFFQEVKIDLHFREDHNPISIPMLNDGRRIVFTVVASLAFKDKVYLTVNAPDTLCEHLQINDGELIVVQLTPGYCAPEGSYHSTVNQVPL
